B1: DVL3 (parent)
chain: SDVVDWLYHNVEGFTDRREARKYA

Variants of: B1
Assay: protein stability index of a GFP-peptide fusion (GPS, HEK-293T) (PSI 1-6); higher = more stable
Conditions: c terminus: a fixed tail appended
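Further: lentivirally expressed fusions sorted by FACS into six bins by GFP to DsRed ratio, PSI derived from sequencing read proportions per bin multiplied by bin number.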

Variant | protein stability index
SDVVDWLYHNVEGFTMRREARKYA [D16M] | 2.29
SDVVDWLYHNVEGFTTRREARKYA [D16T] | 2.66
SDVVDWLYHNVEGFTKRREARKYA [D16K] | 2.29
SDVVDWLYHNVEGFTVRREARKYA [D16V] | 2.24
SDVVDWLYHNVEGFTIRREARKYA [D16I] | 3.24
SDVVDWLYHNVEGFTARREARKYA [D16A] | 2.45
SDVVDWLYHNVEGFTERREARKYA [D16E] | 3
SDVVDWLYHNVEGFTLRREARKYA [D16L] | 2.07
SDVVDWLYHNVWGFTDRREARKYA [E12W] | 2.04
SDVVDWLYHNVRGFTDRREARKYA [E12R] | 2.78
SDVVDWLYHNVVGFTDRREARKYA [E12V] | 1.28
SDVVDWLYHNVSGFTDRREARKYA [E12S] | 2.83
SDVVDWLYHNVGGFTDRREARKYA [E12G] | 2.37
SDVVDWLYHNVTGFTDRREARKYA [E12T] | 2.63
SDVVDWLYHNVMGFTDRREARKYA [E12M] | 2.01
SDVVDWLYHNVNGFTDRREARKYA [E12N] | 2.5
SDVVDWLYHNVQGFTDRREARKYA [E12Q] | 2.98
SDVVDWLYHNVDGFTDRREARKYA [E12D] | 2.96
SDVVDWLYHNVAGFTDRREARKYA [E12A] | 3.49
SDVVDWLYHNVHGFTDRREARKYA [E12H] | 2.88
SDVVDWLYHNVFGFTDRREARKYA [E12F] | 1.98
SDVVDWLYHNVYGFTDRREARKYA [E12Y] | 1.58
SDVVDWLYHNVLGFTDRREARKYA [E12L] | 2.08
SDVVDWLYHNVIGFTDRREARKYA [E12I] | 1.94

Variant | protein stability index
SDVVDWLYHNVKGFTDRREARKYA [E12K] | 3.54
SDVVDWLYHNVCGFTDRREARKYA [E12C] | 2.18
SDVVDWLYHNVPGFTDRREARKYA [E12P] | 2.33
SDVVDWLYHNVETFTDRREARKYA [G13T] | 2.93
SDVVDWLYHNVEHFTDRREARKYA [G13H] | 2.56
SDVVDWLYHNVEMFTDRREARKYA [G13M] | 2.71
SDVVDWLYHNVEEFTDRREARKYA [G13E] | 3.3
SDVVDWLYHNVEVFTDRREARKYA [G13V] | 2.14
SDVVDWLYHNVENFTDRREARKYA [G13N] | 2.66
SDVVDWLYHNVESFTDRREARKYA [G13S] | 2.96
SDVVDWLYHNVEPFTDRREARKYA [G13P] | 3.2
SDVVDWLYHNVEKFTDRREARKYA [G13K] | 2.95
SDVVDWLYHNVERFTDRREARKYA [G13R] | 3.93
SDVVDWLYHNVEYFTDRREARKYA [G13Y] | 2.1
SDVVDWLYHNVEWFTDRREARKYA [G13W] | 2.52
SDVVDWLYHNVEIFTDRREARKYA [G13I] | 2.28
SDVVDWLYHNVECFTDRREARKYA [G13C] | 2.68
SDVVDWLYHNVELFTDRREARKYA [G13L] | 2.28
SDVVDWLYHNVEQFTDRREARKYA [G13Q] | 2.33
SDVVDWLYHNVEDFTDRREARKYA [G13D] | 3.66
SDVVDWLYHNVEAFTDRREARKYA [G13A] | 2.71
SDVVDWLYHNVEFFTDRREARKYA [G13F] | 1.61
SDVVDWLKHNVEGFTDRREARKYA [Y8K] | 3.83
SDVVDWLTHNVEGFTDRREARKYA [Y8T] | 3.63

Variant | protein stability index
SDVVDWLWHNVEGFTDRREARKYA [Y8W] | 2.31
SDVVDWLIHNVEGFTDRREARKYA [Y8I] | 2.39
SDVVDWLLHNVEGFTDRREARKYA [Y8L] | 2.27
SDVVDWLVHNVEGFTDRREARKYA [Y8V] | 2.93
SDVVDWLPHNVEGFTDRREARKYA [Y8P] | 4.51
SDVVDWLNHNVEGFTDRREARKYA [Y8N] | 3.87
SDVVDWLCHNVEGFTDRREARKYA [Y8C] | 3.79
SDVVDWLMHNVEGFTDRREARKYA [Y8M] | 2.74
SDVVDWLGHNVEGFTDRREARKYA [Y8G] | 4.25
SDVVDWLDHNVEGFTDRREARKYA [Y8D] | 4.61
SDVVDWLSHNVEGFTDRREARKYA [Y8S] | 3.56
SDVVDWLQHNVEGFTDRREARKYA [Y8Q] | 3.81
SDVVDWLEHNVEGFTDRREARKYA [Y8E] | 4.2
SDVVDWQYHNVEGFTDRREARKYA [L7Q] | 4.31
SDVVDWMYHNVEGFTDRREARKYA [L7M] | 3.44
SDVVDWTYHNVEGFTDRREARKYA [L7T] | 4.05
SDVVDWCYHNVEGFTDRREARKYA [L7C] | 3.65
SDVVDWSYHNVEGFTDRREARKYA [L7S] | 4.75
SDVVDWGYHNVEGFTDRREARKYA [L7G] | 4.25
SDVVDWPYHNVEGFTDRREARKYA [L7P] | 3.63
SDVVDWVYHNVEGFTDRREARKYA [L7V] | 3.5
SDVVDWRYHNVEGFTDRREARKYA [L7R] | 2.65
SDVVDWWYHNVEGFTDRREARKYA [L7W] | 3.58
SDVVDWHYHNVEGFTDRREARKYA [L7H] | 4.68

Variant | protein stability index
SDVVDWDYHNVEGFTDRREARKYA [L7D] | 4.58
SDVVDWIYHNVEGFTDRREARKYA [L7I] | 3.01
SDVVDWKYHNVEGFTDRREARKYA [L7K] | 4.64
SDVVDWYYHNVEGFTDRREARKYA [L7Y] | 3.28
SDVVDWFYHNVEGFTDRREARKYA [L7F] | 2.12
SDVVDWAYHNVEGFTDRREARKYA [L7A] | 3.54
SDVVDWEYHNVEGFTDRREARKYA [L7E] | 5.12
SDVVDWLYHNVEGTTDRREARKYA [F14T] | 3.87
SDVVDWLYHNVEGGTDRREARKYA [F14G] | 3.96
SDVVDWLYHNVEGQTDRREARKYA [F14Q] | 3.86
SDVVDWLYHNVEGWTDRREARKYA [F14W] | 3.18
SDVVDWLYHNVEGPTDRREARKYA [F14P] | 3.61
SDVVDWLYHNVEGRTDRREARKYA [F14R] | 2.56
SDVVDWLYHNVEGHTDRREARKYA [F14H] | 3.27
SDVVDWLYHNVEGNTDRREARKYA [F14N] | 3.61
SDVVDWLYHNVEGLTDRREARKYA [F14L] | 3.11
SDVVDWLYHNVEGITDRREARKYA [F14I] | 3.97
SDVVDWLYHNVEGDTDRREARKYA [F14D] | 3.95
SDVVDWLYHNVEGETDRREARKYA [F14E] | 4.77
SDVVDWLYHNVEGCTDRREARKYA [F14C] | 3.04
SDVVDWLYHNVEGSTDRREARKYA [F14S] | 4.19
SDVVDWLYHNVEGKTDRREARKYA [F14K] | 4.76

Reference: the supplement of paper PMC10567573
